To fix the notation:
T1: Abp1 SH3 (ABP1_YEAST), P15891
T1 chain: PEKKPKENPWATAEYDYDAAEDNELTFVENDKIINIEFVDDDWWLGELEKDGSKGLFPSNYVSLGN

B1: YPR045C 202-214 (peptide)
chain: RLTSEPNPDLIRP
B2: YGL041C 90-103 (peptide)
chain: RLSVKSSRRNPGKP
B3: YOR144C 235-247 (peptide)
chain: RNTTLTWPQLFKP
B4: YGR097W 8-20 (peptide)
chain: RPSQTLTPMGNKP
B5: YDR284C 245-258 (peptide)
chain: RIFPPIDDPLPFKP
B6: YKL219W 373-385 (peptide)
chain: RLLSTKKPMFDRP
B7: YMR089C 152-165 (peptide)
chain: RNIPPPPPPPPPKP
B8: YFR032C 54-67 (peptide)
chain: RRFSKRHNSNPRKP
B9: YHR159W 69-81 (peptide)
chain: RLNDQDHPLQAKP
B10: YBR245C 789-801 (peptide)
chain: RSSTPSHPRMPKP
B11: YBL080C 12-25 (peptide)
chain: RTKAIHSHGAPFRP
B12: YPR104C 727-740 (peptide)
chain: RQPIVQTPHVPDRP
B13: YIL074C 41-53 (peptide)
chain: RVSITKQPKALKP
B14: YOR260W 63-75 (peptide)
chain: RLPKALLPIGNRP
B15: YER158C 359-372 (peptide)
chain: RIPVLPPPRSPNRP
B16: YDL164C 386-398 (peptide)
chain: RPGIPLKPMLAKP
B17: YMR241W 239-252 (peptide)
chain: RVEMQSKKEDPNRP
B18: YPR122W 608-620 (peptide)
chain: RPQIYSEPTRTKP
B19: YNL094W 468-480 (peptide)
chain: RPPPPPIPSTQKP
B20: YOR236W 58-70 (peptide)
chain: RKTWESIPPKFRP
B21: YGR092W 44-57 (peptide)
chain: RPAGINDSPSPVKP
B22: YLR006C 664-677 (peptide)
chain: RMTDSVLVKSPQKP
B23: YDR104C 1028-1040 (peptide)
chain: RPLIQKGPLYQKP
B24: YPR140W 364-376 (peptide)
chain: RRMQKFLPPEGKP
B25: YDR174W 96-109 (peptide)
chain: RRKIERDPNAPKKP
B26: YKL089W 336-349 (peptide)
chain: RRKKQKKKPTPTRP
B27: YJL194W 14-27 (peptide)
chain: RNLFDDAPATPPRP
B28: YPL181W 404-417 (peptide)
chain: RRSADIGTDKPVKP
B29: YDR186C 539-551 (peptide)
chain: RSLSLMDPALQKP
B30: YBL034C 808-820 (peptide)
chain: RQIMIKSPNDFKP
B31: YNL233W 771-784 (peptide)
chain: RNNAYLPEFEPNRP
B32: YNL278W 803-816 (peptide)
chain: RSRHEVPKRSPEKP
B33: YGR074W 130-142 (peptide)
chain: RRRDFGAPANKRP
B34: YCR066W 152-164 (peptide)
chain: RSMTDILPLSSKP
B35: YMR201C 33-45 (peptide)
chain: RIESRNEPLKTRP
B36: YMR068W 271-284 (peptide)
chain: RSSITNPVFNPRKP
B37: YDR176W 652-664 (peptide)
chain: RWINKIGPLFDKP
B38: YOL090W 17-30 (peptide)
chain: RNFYKKYTGLPKKP
B39: YBL007C 612-625 (peptide)
chain: RSRLQEKELPPIKP
B40: YKL185W 146-159 (peptide)
chain: RLSSVSLSKRPERP
B41: YOR156C 78-91 (peptide)
chain: RKSSDIGHIDPWRP
B42: YGL061C 212-224 (peptide)
chain: RVRKTHVPASKRP
B43: YDR246W 151-164 (peptide)
chain: RQPTIATTDKPDRP
B44: YGL064C 428-441 (peptide)
chain: RSEKIMPFLSPPRP
B45: YHL024W 604-617 (peptide)
chain: RRSSYGYNEVPPKP
B46: YHR185C 60-72 (peptide)
chain: RRQHEQWPAYEKP
B47: YDR024W 78-90 (peptide)
chain: RPTQVSRPLGGRP
B48: YER081W 41-53 (peptide)
chain: RLNAVKHPKILKP
B49: YMR273C 809-822 (peptide)
chain: RKLTFADVKKPDKP
B50: YGL058W 54-67 (peptide)
chain: RLLLEFDEEYPNKP
B51: YKL089W 337-349 (peptide)
chain: RKKQKKKPTPTRP
B52: YEL062W 541-554 (peptide)
chain: RNTAQSGNLKPERP
B53: YCR033W 218-231 (peptide)
chain: RSNKWRSIGTPSRP
B54: YMR172W 515-527 (peptide)
chain: RNRASTLPSYPKP

In this experiment the target is T1, Abp1 SH3 (ABP1_YEAST), P15891. The experiment in a line: SPOT array.
With B1, the normalised SPOT signal, Boehringer light units (BLU); mean over the file's lines of this peptide was found to be 94.5. With B2, the normalised SPOT signal, Boehringer light units (BLU); mean over the file's lines of this peptide stood at 125. The same measure for B3: 344; for B4: 4080; for B5: 92.4.

Consider B6, for which the normalised SPOT signal, Boehringer light units (BLU); mean over the file's lines of this peptide came out at 955. The same measure for B7: 1000; for B8: 89; for B9: 104. The value for B10 was 1930. The same measure for B11: 49.4. On to B12, for which the normalised SPOT signal, Boehringer light units (BLU); mean over the file's lines of this peptide was determined as 56.7. The value for B13 was 244; that for B14 was 702. The same measure for B15: 7670. The value for B16 was 42200; that for B17 was 1200. B18 returned a normalised SPOT signal, Boehringer light units (BLU); mean over the file's lines of this peptide of 373. The value for B19 was 2820; that for B20 was 1050. The value for B21 was 71.

The molecule B22 returned a normalised SPOT signal, Boehringer light units (BLU); mean over the file's lines of this peptide of 2960.

As to B23, the normalised SPOT signal, Boehringer light units (BLU); mean over the file's lines of this peptide came out at 359.

Consider B24, for which the normalised SPOT signal, Boehringer light units (BLU); mean over the file's lines of this peptide was 615. The value for B25 was 66.1; that for B26 was 33.3. The same measure for B27: 126; for B28: 121; for B29: 431. The value for B30 was 2000. In the case of B31, the normalised SPOT signal, Boehringer light units (BLU); mean over the file's lines of this peptide is 44.7. The value for B32 was 76.3; that for B33 was 71.9; that for B34 was 5410. The molecule B35 came in with a normalised SPOT signal, Boehringer light units (BLU); mean over the file's lines of this peptide of 196. The value for B36 was 527; that for B37 was 287; that for B38 was 112. The same measure for B39: 88.5; for B40: 412. The value for B41 was 77.8.

In turn, B42 displayed a normalised SPOT signal, Boehringer light units (BLU); mean over the file's lines of this peptide of 78.6.

Consider B43, for which the normalised SPOT signal, Boehringer light units (BLU); mean over the file's lines of this peptide was determined as 83.4.

With B44, the normalised SPOT signal, Boehringer light units (BLU); mean over the file's lines of this peptide was 701. The value for B45 was 188. The value for B46 was 300; that for B47 was 3290; that for B48 was 188. The same measure for B49: 62.6; for B50: 97.1; for B51: 106. As to B52, the normalised SPOT signal, Boehringer light units (BLU); mean over the file's lines of this peptide was found to be 115. The same measure for B53: 148. The value for B54 was 224.

Source of the values: paper PMC314469, “Protein Interaction Networks by Proteome Peptide Scanning” (PLoS Biology, 2004).
